Measurements reported in PMC12443421.

Target: wild-type unmodified 147 bp nucleosome (nucleosome core particle), P04908;P62807;Q71DI3;P62805
Assay: EMSA
Settings: chain shown with the change

Binder | Kd | Kd (0-32 µM KDM5A^MutR titration)
KDM5A^CAT (lysine demethylase 5A, residues 1-801), P29375 R264A; R265A; R266A; R271A (protein) MAGVGPGGYAAEFVPPPECPVFEPSWEEFTDPLSFIGRIRPLAEKTGICKIRPPKDWQPPFACEVKSFRFTPRVQRLNELEAMTRVRLDFLDQLAKFWELQGSTLKIPVVERKILDLYALSKIVASKGGFEMVTKEKKWSKVGSRLGYLPGKGTGSLLKSHYERILYPYELFQSGVSLMGVQMPNLDLKEKVEPEVLSTDTQTSPEPGTRMNILPKRTRRVKTQSESGDVSRNTELKKLQIFGAGPKVVGLAMGTKDKEDEVTAAAKVTNRSDAFNMQMRQRKGTLSVNFVDLYVCMFCGRGNNEDKLLLCDGCDDSYHTFCLIPPLPDVPKGDWRCPKCVAEECSKPREAFGFEQAVREYTLQSFGEMADNFKSDYFNMPVHMVPTELVEKEFWRLVSSIEEDVIVEYGADISSKDFGSGFPVKDGRRKILPEEEEYALSGWNLNNMPVLEQSVLAHINVDISGMKVPWLYVGMCFSSFCWHIEDHWSYSINYLHWGEPKTWYGVPSHAAEQLEEVMRELAPELFESQPDLLHQLVTIMNPNVLMEHGVPVYRTNQCAGEFVVTFPRAYHSGFNQGYNFAEAVNFCTADWLPIGRQCVNHYRRLRRHCVFSHEELIFKMAADPECLDVGLAAMVCKELTLMTEEETRLRESVVQMGVLMSEEEVFELVPDDERQCSACRTTCFLSALTCSCNPERLVCLYHPTDLCPCPMQKKCLRYRYPLEDLPSLLYGVKVRAQSYDTWVSRVTEALSANFNHKKDLIELRVMLEDAEDRKYPENDLFRKLRDAVKEAETCASVAQLL | 10.3 µM | –
KDM5A^CAT (lysine demethylase 5A, residues 1-801), P29375 R217A; R219A; R220A (protein) MAGVGPGGYAAEFVPPPECPVFEPSWEEFTDPLSFIGRIRPLAEKTGICKIRPPKDWQPPFACEVKSFRFTPRVQRLNELEAMTRVRLDFLDQLAKFWELQGSTLKIPVVERKILDLYALSKIVASKGGFEMVTKEKKWSKVGSRLGYLPGKGTGSLLKSHYERILYPYELFQSGVSLMGVQMPNLDLKEKVEPEVLSTDTQTSPEPGTRMNILPKATAAVKTQSESGDVSRNTELKKLQIFGAGPKVVGLAMGTKDKEDEVTRRRKVTNRSDAFNMQMRQRKGTLSVNFVDLYVCMFCGRGNNEDKLLLCDGCDDSYHTFCLIPPLPDVPKGDWRCPKCVAEECSKPREAFGFEQAVREYTLQSFGEMADNFKSDYFNMPVHMVPTELVEKEFWRLVSSIEEDVIVEYGADISSKDFGSGFPVKDGRRKILPEEEEYALSGWNLNNMPVLEQSVLAHINVDISGMKVPWLYVGMCFSSFCWHIEDHWSYSINYLHWGEPKTWYGVPSHAAEQLEEVMRELAPELFESQPDLLHQLVTIMNPNVLMEHGVPVYRTNQCAGEFVVTFPRAYHSGFNQGYNFAEAVNFCTADWLPIGRQCVNHYRRLRRHCVFSHEELIFKMAADPECLDVGLAAMVCKELTLMTEEETRLRESVVQMGVLMSEEEVFELVPDDERQCSACRTTCFLSALTCSCNPERLVCLYHPTDLCPCPMQKKCLRYRYPLEDLPSLLYGVKVRAQSYDTWVSRVTEALSANFNHKKDLIELRVMLEDAEDRKYPENDLFRKLRDAVKEAETCASVAQLL | 12 µM | –
KDM5A^CAT (lysine demethylase 5A, residues 1-801), P29375 R210A; R217A; R219A; R220A; R232A; R264A; R265A; R266A; R271A; R280A; R282A (protein) MAGVGPGGYAAEFVPPPECPVFEPSWEEFTDPLSFIGRIRPLAEKTGICKIRPPKDWQPPFACEVKSFRFTPRVQRLNELEAMTRVRLDFLDQLAKFWELQGSTLKIPVVERKILDLYALSKIVASKGGFEMVTKEKKWSKVGSRLGYLPGKGTGSLLKSHYERILYPYELFQSGVSLMGVQMPNLDLKEKVEPEVLSTDTQTSPEPGTAMNILPKATAAVKTQSESGDVSANTELKKLQIFGAGPKVVGLAMGTKDKEDEVTAAAKVTNASDAFNMQMAQAKGTLSVNFVDLYVCMFCGRGNNEDKLLLCDGCDDSYHTFCLIPPLPDVPKGDWRCPKCVAEECSKPREAFGFEQAVREYTLQSFGEMADNFKSDYFNMPVHMVPTELVEKEFWRLVSSIEEDVIVEYGADISSKDFGSGFPVKDGRRKILPEEEEYALSGWNLNNMPVLEQSVLAHINVDISGMKVPWLYVGMCFSSFCWHIEDHWSYSINYLHWGEPKTWYGVPSHAAEQLEEVMRELAPELFESQPDLLHQLVTIMNPNVLMEHGVPVYRTNQCAGEFVVTFPRAYHSGFNQGYNFAEAVNFCTADWLPIGRQCVNHYRRLRRHCVFSHEELIFKMAADPECLDVGLAAMVCKELTLMTEEETRLRESVVQMGVLMSEEEVFELVPDDERQCSACRTTCFLSALTCSCNPERLVCLYHPTDLCPCPMQKKCLRYRYPLEDLPSLLYGVKVRAQSYDTWVSRVTEALSANFNHKKDLIELRVMLEDAEDRKYPENDLFRKLRDAVKEAETCASVAQLL | 14 µM | 14 µM
KDM5A^CAT (lysine demethylase 5A, residues 1-801), P29375 R280A; R282A (protein) MAGVGPGGYAAEFVPPPECPVFEPSWEEFTDPLSFIGRIRPLAEKTGICKIRPPKDWQPPFACEVKSFRFTPRVQRLNELEAMTRVRLDFLDQLAKFWELQGSTLKIPVVERKILDLYALSKIVASKGGFEMVTKEKKWSKVGSRLGYLPGKGTGSLLKSHYERILYPYELFQSGVSLMGVQMPNLDLKEKVEPEVLSTDTQTSPEPGTRMNILPKRTRRVKTQSESGDVSRNTELKKLQIFGAGPKVVGLAMGTKDKEDEVTRRRKVTNRSDAFNMQMAQAKGTLSVNFVDLYVCMFCGRGNNEDKLLLCDGCDDSYHTFCLIPPLPDVPKGDWRCPKCVAEECSKPREAFGFEQAVREYTLQSFGEMADNFKSDYFNMPVHMVPTELVEKEFWRLVSSIEEDVIVEYGADISSKDFGSGFPVKDGRRKILPEEEEYALSGWNLNNMPVLEQSVLAHINVDISGMKVPWLYVGMCFSSFCWHIEDHWSYSINYLHWGEPKTWYGVPSHAAEQLEEVMRELAPELFESQPDLLHQLVTIMNPNVLMEHGVPVYRTNQCAGEFVVTFPRAYHSGFNQGYNFAEAVNFCTADWLPIGRQCVNHYRRLRRHCVFSHEELIFKMAADPECLDVGLAAMVCKELTLMTEEETRLRESVVQMGVLMSEEEVFELVPDDERQCSACRTTCFLSALTCSCNPERLVCLYHPTDLCPCPMQKKCLRYRYPLEDLPSLLYGVKVRAQSYDTWVSRVTEALSANFNHKKDLIELRVMLEDAEDRKYPENDLFRKLRDAVKEAETCASVAQLL | 7.8 µM | –
